Measurements reported in patent US20230279368A1 (NORTH CAROLINA STATE UNIVERSITY, published 2023).

Experiments:
[1] = molecular target: the molecule itself; experiment: size exclusion chromatography, self-association (homodimer); data not shown
[2] = molecular target: the molecule itself; experiment: size exclusion chromatography and SAXS, self-association (homodimer)
Method: Size Exclusion Chromatography. To determine molecular mass, NTA purified samples were subjected to size exclusion chromatography (Superdex 200 10/300 GL, GE Healthcare) equilibrated with SEC buffer (100 mM Tris pH7.5, 200 mM sodium chloride). The protein sample equilibrated in SEC buffer was applied to the column. The mass of BHT₍₂₃₋₅₉₄₎-HIS was calculated based on the standards in the high molecular weight gel calibration kit (Cytiva Life Sciences*).
Small angle X-ray scattering: Data Collection and Analysis. rBHT₍₂₃₋₅₉₄₎-HIS samples at 1 mg/ml and 4 mg/ml 5 mM in sodium phosphate buffer at pH 5 were measured on a Rigaku Bio-SAXS 2000. The instrument uses Cu Kα radiation (λ=1.54 Å) and was collimated to provide a sufficient Q-range of 0.01-0.67 Å⁻¹. Measurements were performed at ambient temperature. Samples were measured for a total of 40 min in 5 min scans. Data were corrected for transmission and sample background. […]
The dimer conformation was further validated in solution by small X-ray scattering (SAXS) (FIG. 7A). […] Molecular mass were calculated using the method described by Rambo and Tamer. The molecular mass determined from SAXS (˜169 KDa) confirmed that BHT forms a dimer in solution Table 3. […] The Rg and Dₘₐₓ of the 6M4F crystallographic dimer (molecule A and molecule C) calculated using Crysol are 34 Å and 110 Å, respectively. […]

B1: rBHT(57-594)-HIS (enzyme)
chain: AELDALWNLVEAQYPVQTAAVTTLVTVPDDYKFEADPPSYALAGYETSEIAGLKFPKGFKFGVAGAAIQVEGAAKAEGRGPSTWDYLCHHYASTQCNNYDPDITTNHYYLYPLDFARLQHLGINTYSFSISWTRIYPLGAGYVNEAGLAHYDAVIHSAKKYGLEPVGTVFHWDTPLSLMLKYGAWQDTGDQIVKDFVTYATTVFKRYGNEVKTWFTFNEPRVFCSQNSGLPYNLTYPEGINSTSAVFRCTYNVLKAHGHAVKVYRDLVASGTIAAGEIGFKSDDNYPIPARPGNADDEESAKRHEAFRIGIFAQPVYGNGDYPDVVKETVGDMLPALTDEDKGYIKGSGDIFAIDGYRTDISHAALNGIANCIRNQSDPNWPVCEEGSDPFAHVYPSGFAIGQSADPLSSWLVNSAPFIRDQLKFLTQTYPAKGGIYFSEFGWAEDAEYDRQLLYQITWDGLRTQYLTDYLSQLLLAVHKDGINLRGALTWSFVDNWEWGLGMQQKFGFQFVNQSDPDLTRTFKLSAHAYAQFGRNHLHHHHHH
notes: the entry describes its self-association into a dimer
[1]
  binding result: binds

B2: rBHT(23-594)-HIS (enzyme)
chain: VTYPGAIPLSLTSNYETPSPTAIPLEPTPTATGTAELDALWNLVEAQYPVQTAAVTTLVTVPDDYKFEADPPSYALAGYETSEIAGLKFPKGFKFGVAGAAIQVEGAAKAEGRGPSTWDYLCHHYASTQCNNYDPDITTNHYYLYPLDFARLQHLGINTYSFSISWTRIYPLGAGYVNEAGLAHYDAVIHSAKKYGLEPVGTVFHWDTPLSLMLKYGAWQDTGDQIVKDFVTYATTVFKRYGNEVKTWFTFNEPRVFCSQNSGLPYNLTYPEGINSTSAVFRCTYNVLKAHGHAVKVYRDLVASGTIAAGEIGFKSDDNYPIPARPGNADDEESAKRHEAFRIGIFAQPVYGNGDYPDVVKETVGDMLPALTDEDKGYIKGSGDIFAIDGYRTDISHAALNGIANCIRNQSDPNWPVCEEGSDPFAHVYPSGFAIGQSADPLSSWLVNSAPFIRDQLKFLTQTYPAKGGIYFSEFGWAEDAEYDRQLLYQITWDGLRTQYLTDYLSQLLLAVHKDGINLRGALTWSFVDNWEWGLGMQQKFGFQFVNQSDPDLTRTFKLSAHAYAQFGRNHLHHHHHH
modifications: N-glycosylated at N289, N297, N431 and N569 (numbering of full-length BHT, SEQ ID NO: 1), expressed in K. pastoris
notes: the entries describe its self-association into a homodimer
[2]
  binding result: binds

B3: rBHT(54-594)-HIS (enzyme)
chain: TGTAELDALWNLVEAQYPVQTAAVTTLVTVPDDYKFEADPPSYALAGYETSEIAGLKFPKGFKFGVAGAAIQVEGAAKAEGRGPSTWDYLCHHYASTQCNNYDPDITTNHYYLYPLDFARLQHLGINTYSFSISWTRIYPLGAGYVNEAGLAHYDAVIHSAKKYGLEPVGTVFHWDTPLSLMLKYGAWQDTGDQIVKDFVTYATTVFKRYGNEVKTWFTFNEPRVFCSQNSGLPYNLTYPEGINSTSAVFRCTYNVLKAHGHAVKVYRDLVASGTIAAGEIGFKSDDNYPIPARPGNADDEESAKRHEAFRIGIFAQPVYGNGDYPDVVKETVGDMLPALTDEDKGYIKGSGDIFAIDGYRTDISHAALNGIANCIRNQSDPNWPVCEEGSDPFAHVYPSGFAIGQSADPLSSWLVNSAPFIRDQLKFLTQTYPAKGGIYFSEFGWAEDAEYDRQLLYQITWDGLRTQYLTDYLSQLLLAVHKDGINLRGALTWSFVDNWEWGLGMQQKFGFQFVNQSDPDLTRTFKLSAHAYAQFGRNHLHHHHHH
notes: as for B1
[1]
  binding result: binds

B4: rBHT(32-594)-HIS (enzyme)
chain: SLTSNYETPSPTAIPLEPTPTATGTAELDALWNLVEAQYPVQTAAVTTLVTVPDDYKFEADPPSYALAGYETSEIAGLKFPKGFKFGVAGAAIQVEGAAKAEGRGPSTWDYLCHHYASTQCNNYDPDITTNHYYLYPLDFARLQHLGINTYSFSISWTRIYPLGAGYVNEAGLAHYDAVIHSAKKYGLEPVGTVFHWDTPLSLMLKYGAWQDTGDQIVKDFVTYATTVFKRYGNEVKTWFTFNEPRVFCSQNSGLPYNLTYPEGINSTSAVFRCTYNVLKAHGHAVKVYRDLVASGTIAAGEIGFKSDDNYPIPARPGNADDEESAKRHEAFRIGIFAQPVYGNGDYPDVVKETVGDMLPALTDEDKGYIKGSGDIFAIDGYRTDISHAALNGIANCIRNQSDPNWPVCEEGSDPFAHVYPSGFAIGQSADPLSSWLVNSAPFIRDQLKFLTQTYPAKGGIYFSEFGWAEDAEYDRQLLYQITWDGLRTQYLTDYLSQLLLAVHKDGINLRGALTWSFVDNWEWGLGMQQKFGFQFVNQSDPDLTRTFKLSAHAYAQFGRNHLHHHHHH
notes: as for B1
[1]
  binding result: binds
